{
  "source": "patent US8993229",
  "key": {"[1]": {"molecular_target": "porcine gastric mucin coupled to magnetic beads (mucin from porcine stomach, type III, Sigma) (porcine)", "assay": "PGM-MB pull-down, qRT-PCR; untreated virus in the 300-600 MPa series"}, "[2]": {"molecular_target": "porcine gastric mucin coupled to magnetic beads (mucin from porcine stomach, type III, Sigma) (porcine)", "assay": "PGM-MB pull-down, qRT-PCR; 0 J/cm^2 in the UV series"}, "[3]": {"molecular_target": "porcine gastric mucin coupled to magnetic beads (mucin from porcine stomach, type III, Sigma) (porcine)", "assay": "PGM-MB pull-down, qRT-PCR; untreated control in the initial pressure trials"}, "[4]": {"molecular_target": "porcine gastric mucin coupled to magnetic beads (mucin from porcine stomach, type III, Sigma) (porcine)", "assay": "PGM-MB pull-down, qRT-PCR; 0 J/cm^2; printed as 'bound' but the context (84% bound) shows it is the unbound fraction"}, "[5]": {"molecular_target": "porcine gastric mucin coupled to magnetic beads (mucin from porcine stomach, type III, Sigma) (porcine)", "assay": "PGM-MB pull-down, qRT-PCR; untreated virus (0 seconds) in the thermal series"}, "[6]": {"molecular_target": "porcine gastric mucin coupled to magnetic beads (mucin from porcine stomach, type III, Sigma) (porcine)", "assay": "PGM-MB pull-down, qRT-PCR; after 0.5 J/cm^2 UV"}, "[7]": {"molecular_target": "porcine gastric mucin coupled to magnetic beads (mucin from porcine stomach, type III, Sigma) (porcine)", "assay": "PGM-MB pull-down, qRT-PCR; after 1 J/cm^2 UV"}, "[8]": {"molecular_target": "porcine gastric mucin coupled to magnetic beads (mucin from porcine stomach, type III, Sigma) (porcine)", "assay": "PGM-MB pull-down, qRT-PCR; after 0.25 J/cm^2 UV"}, "[9]": {"molecular_target": "porcine gastric mucin coupled to magnetic beads (mucin from porcine stomach, type III, Sigma) (porcine)", "assay": "PGM-MB pull-down, qRT-PCR; after 600 MPa, 5 minutes, 5 C"}, "[10]": {"molecular_target": "porcine gastric mucin coupled to magnetic beads (mucin from porcine stomach, type III, Sigma) (porcine)", "assay": "PGM-MB pull-down, qRT-PCR of the bound fraction; after 500 and 600 MPa, 5 minutes, 5 C"}, "[11]": {"molecular_target": "porcine gastric mucin coupled to magnetic beads (mucin from porcine stomach, type III, Sigma) (porcine)", "assay": "PGM-MB pull-down, qRT-PCR; after about 60 seconds in the heat block, about 64 C"}},
  "data": [
    {"substance": "GI.1 Norwalk strain norovirus (untreated virions from stool stock, patient No. 505A-05) (from UniProt Q83884 1-530)", "values": [
      {"measurement": "percent bound", "setting": "[1]", "result": 82, "unit": "%"},
      {"measurement": "percent bound", "setting": "[2]", "result": 84, "unit": "%"},
      {"measurement": "percent bound", "setting": "[3]", "result": 71, "unit": "%"},
      {"measurement": "percent unbound", "setting": "[4]", "result": 16, "unit": "%"},
      {"measurement": "percent bound", "setting": "[5]", "result": 68, "unit": "%"},
      {"measurement": "percent unbound", "setting": "[5]", "result": 32, "unit": "%"}
    ]},
    {"substance": "GI.1 norovirus after UV treatment (254 nm, up to 2 J/cm^2) (from UniProt Q83884 1-530)", "values": [
      {"measurement": "percent bound", "setting": "[6]", "result": 33, "unit": "%"},
      {"measurement": "percent unbound", "setting": "[6]", "result": 67, "unit": "%"},
      {"measurement": "percent bound", "setting": "[7]", "result": 4, "unit": "%"},
      {"measurement": "percent unbound", "setting": "[8]", "result": 40, "unit": "%"}
    ]},
    {"substance": "GI.1 norovirus after high pressure treatment (300-600 MPa, 5 minutes, 5 C) (from UniProt Q83884 1-530)", "values": [
      {"measurement": "percent bound", "setting": "[9]", "result": 0.3, "unit": "%"},
      {"measurement": "log10 reduction of qRT-PCR detectable norovirus RNA after binding to PGM-MBs", "setting": "[10]", "result": "> 4.7"}
    ]},
    {"substance": "GI.1 norovirus after thermal treatment (80 C heat block, 0-600 seconds) (from UniProt Q83884 1-530)", "values": [
      {"measurement": "percent bound", "setting": "[11]", "result": 6, "unit": "%"}
    ]},
    {"substance": "GII.4 norovirus (untreated virions, stock provided by the CDC)", "values": [
      {"measurement": "percent bound", "setting": "[3]", "result": 69, "unit": "%"}
    ]},
    {"substance": "GII.4 norovirus after high pressure treatment (600 MPa, 5 minutes, 5 C)", "values": [
      {"measurement": "percent bound", "setting": "[9]", "result": 4, "unit": "%"}
    ]}
  ]
}
